Measured values taken from IntAct's records for PubMed 26751641.

B1: Chromodomain-helicase-DNA-binding protein 1 (Homo sapiens), O14646 (parent)
chain: MNGHSDEESVRNSSGESSQSDDDSGSASGSGSGSSSGSSSDGSSSQSGSSDSDSGSESGSQSESESDTSRENKVQAKPPKVDGAEFWKSSPSILAVQRSAILKKQQQQQQQQQHQASSNSGSEEDSSSSEDSDDSSSEVKRKKHKDEDWQMSGSGSPSQSGSDSESEEEREKSSCDETESDYEPKNKVKSRKPQNRSKSKNGKKILGQKKRQIDSSEEDDDEEDYDNDKRSSRRQATVNVSYKEDEEMKTDSDDLLEVCGEDVPQPEEEEFETIERFMDCRIGRKGATGATTTIYAVEADGDPNAGFEKNKEPGEIQYLIKWKGWSHIHNTWETEETLKQQNVRGMKKLDNYKKKDQETKRWLKNASPEDVEYYNCQQELTDDLHKQYQIVERIIAHSNQKSAAGYPDYYCKWQGLPYSECSWEDGALISKKFQACIDEYFSRNQSKTTPFKDCKVLKQRPRFVALKKQPSYIGGHEGLELRDYQLNGLNWLAHSWCKGNSCILADEMGLGKTIQTISFLNYLFHEHQLYGPFLLVVPLSTLTSWQREIQTWASQMNAVVYLGDINSRNMIRTHEWTHHQTKRLKFNILLTTYEILLKDKAFLGGLNWAFIGVDEAHRLKNDDSLLYKTLIDFKSNHRLLITGTPLQNSLKELWSLLHFIMPEKFSSWEDFEEEHGKGREYGYASLHKELEPFLLRRVKKDVEKSLPAKVEQILRMEMSALQKQYYKWILTRNYKALSKGSKGSTSGFLNIMMELKKCCNHCYLIKPPDNNEFYNKQEALQHLIRSSGKLILLDKLLIRLRERGNRVLIFSQMVRMLDILAEYLKYRQFPFQRLDGSIKGELRKQALDHFNAEGSEDFCFLLSTRAGGLGINLASADTVVIFDSDWNPQNDLQAQARAHRIGQKKQVNIYRLVTKGSVEEDILERAKKKMVLDHLVIQRMDTTGKTVLHTGSAPSSSTPFNKEELSAILKFGAEELFKEPEGEEQEPQEMDIDEILKRAETHENEPGPLTVGDELLSQFKVANFSNMDEDDIELEPERNSKNWEEIIPEDQRRRLEEEERQKELEEIYMLPRMRNCAKQISFNGSEGRRSRSRRYSGSDSDSISEGKRPKKRGRPRTIPRENIKGFSDAEIRRFIKSYKKFGGPLERLDAIARDAELVDKSETDLRRLGELVHNGCIKALKDSSSGTERTGGRLGKVKGPTFRISGVQVNAKLVISHEEELIPLHKSIPSDPEERKQYTIPCHTKAAHFDIDWGKEDDSNLLIGIYEYGYGSWEMIKMDPDLSLTHKILPDDPDKKPQAKQLQTRADYLIKLLSRDLAKKEALSGAGSSKRRKARAKKNKAMKSIKVKEEIKSDSSPLPSEKSDEDDDKLSESKSDGRERSKKSSVSDAPVHITASGEPVPISEESEELDQKTFSICKERMRPVKAALKQLDRPEKGLSEREQLEHTRQCLIKIGDHITECLKEYTNPEQIKQWRKNLWIFVSKFTEFDARKLHKLYKHAIKKRQESQQNSDQNSNLNPHVIRNPDVERLKENTNHDDSSRDSYSSDRHLTQYHDHHKDRHQGDSYKKSDSRKRPYSSFSNGKDHRDWDHYKQDSRYYSDREKHRKLDDHRSRDHRSNLEGSLKDRSHSDHRSHSDHRLHSDHRSSSEYTHHKSSRDYRYHSDWQMDHRASSSGPRSPLDQRSPYGSRSPFEHSVEHKSTPEHTWSSRKT

Variants of: B1
Settings: with KDM1A

Row | effect of a mutation on the interaction | Variant
1 | disrupting interaction strength | D425A
